In patent US8030048B2, “Enantioselective epoxide hydlrolase and method for preparing and enantiopure epoxide using the same” (Korea Ocean Research and Development Institute, priority 2005, dated 2011):

Legend:
[1] = Optimum activity conditions of sEEH, nEEH and rEEH; format: biochemical
Method: After cloning the genes into pET-24a (+) expression vector, the vector was introduced into BL21-CondonPlus(DE3)-RP (Novagen), and then separated by SDS-PAGE. […] Also, the optimum activities of sEEH, nEEH, and rEEH occurred at neutral pH and mesophilic conditions (30 to 40° C.).

[2] = Enantioselective hydrolyzing activity of purified EHases toward SO; format: biochemical; conditions: purified enzyme
Method: (§1) Kinetic parameters of the rEEH1, rEEH2, rEEH3, sEEH, nEEH, and rEEH were determined by a GC analysis using (R)- or (S)- styrene oxide substrate. 100 ul of purified EHases were mixed with various concentrations of (R)- or (S)- styrene oxide in a 10 ml tube containing 1 ml of potassium phosphate buffer (100 mM, pH 8.0), and shake-incubated at 200 rpm and a temperature of 30° C. The extraction mixtures were extracted with 2 ml of hexane, and enantiomeric excess [ee; ee=100×(S−R)/(S+R)] toward enantiopure styrene oxide was analyzed with a chiraldex gamma-cyclodextrin trifluoroacetyl(G-TA) capillary GC column. Wherein, the FIG. 8 was diagramed with GC analysis for the hydrolyzing activities of enantioselective EHases (rEEH1, rEEH2, and rEEH3) toward racemic styrene oxide.
(§2) Kinetic parameters were estimated by non-linear regression analysis using a Sigma Plot program, and various substrates as depicted in FIG. 1 were also tested for the enantioselective hydrolyzing activity by rEEH1, rEEH2, rEEH3, sEEH, nEEH, and rEEH.

[3] = substrate: c1ccc([C@@H]2CO2)cc1; test: Kinetic parameters of purified rEEH by GC analysis with (R)- or (S)-styrene oxide; format: biochemical, Rhodobacterium sp. HTCC2654; conditions: other: 100 mM potassium phosphate pH 8.0, 30° C.
Method: as §1, §2

[4] = substrate: c1ccc([C@H]2CO2)cc1; test: as above; format: biochemical, Rhodobacterium sp. HTCC2654; conditions: other: 100 mM potassium phosphate pH 8.0, 30° C.
Method: as §1, §2

[5] = substrate: c1ccc([C@@H]2CO2)cc1; test: Kinetic parameters of purified nEEH by GC analysis with (R)- or (S)-styrene oxide; format: biochemical, Novosphingobium aromaticivorans; conditions: other: 100 mM potassium phosphate pH 8.0, 30° C.
Method: as §1, §2

[6] = substrate: c1ccc([C@H]2CO2)cc1; test: as above; format: biochemical, Novosphingobium aromaticivorans; conditions: other: 100 mM potassium phosphate pH 8.0, 30° C.
Method: as §1, §2

[7] = substrate: c1ccc([C@@H]2CO2)cc1; test: Kinetic parameters of purified sEEH by GC analysis with (R)- or (S)-styrene oxide; format: biochemical, Sphingopyxis alaskensis; conditions: other: 100 mM potassium phosphate pH 8.0, 30° C.
Method: as §1, §2

[8] = substrate: c1ccc([C@H]2CO2)cc1; test: as above; format: biochemical, Sphingopyxis alaskensis; conditions: other: 100 mM potassium phosphate pH 8.0, 30° C.
Method: as §1, §2

B1: Rhodobacterium sp. HTCC2654 epoxide hydrolase rEEH (RH), SEQ ID NO: 32 (Maritimibacter alkaliphilus HTCC2654) (protein)
chain: MNDKTFIETNGIRLATRIEGDGPLVILVHGFPETAYSWRKQASPLVEAGYRVCIPDVRGYGNSDAPEAVSAYAMEVMTRDFLGLAQALSEVPAVIVGHDWGAPLAWNTARLFPEQFRAVAGLSVPYAPPGDVAPIDLYHKLFTDKGRFFYQVYFQDEGVAEAELEADVEDSLAKFYYAWSGDCPPNGWPNDKAHGDPVLKGLPRPDLPLPWLTQDDLDRYAADFRTSGFRGPLNRYRNQREDHAFLKAHPSNPIIQQPSLFLYGDRDPVLTMFRTPPEDLLPKTLADLRGVHRLPGVGHWTQQEAPEAVNKALIDWLATL
notes: soluble-EH-like alpha/beta hydrolase
- optimum temperature [1]: 30-40 °C
- enantiomer preference in hydrolysis of styrene oxide, in words [2]: hydrolyzed (R)-enantiopure styrene oxide
- Km [3]: 5.2 ± 0.3 mM
- Vmax [3]: 54.1 µmol/min/mg
- kcat [3]: 32 s⁻¹
- kcat/Km [3]: 6160 M⁻¹ s⁻¹
- Km [4]: 4.1 ± 0.3 mM
- Vmax [4]: 11.3 µmol/min/mg
- kcat [4]: 6.7 s⁻¹
- kcat/Km [4]: 1630 M⁻¹ s⁻¹

B2: Novosphingobium aromaticivorans epoxide hydrolase nEEH (Novo), SEQ ID NO: 30 (Novosphingobium aromaticivorans DSM 12444) (protein)
chain: MNVAPFVVDIPRGEIEDLHRRIDMTRWPEKETVDDWSQGTPLGALQDFVSYWRGGYDWYACQRMLNDWGMFETEIDGVAIRFLHVRSAQADARPLLLTHGWPGSILEFRRCIAPLTRPEEHGGTAADAFHLVIPCLPGYGFSGKPTRKGWSVQKIAQAWGELMKRLGYESWLAQGGDWGSAVTTAIGALKVEGCAGIHLNMPIARPLPEDLAAPTPEELRALTALQHYQDWDSGYSKEQATRPQTVGYGLVDSPVGLAGWIYEKMWAWTDNEGAPEDALSRDDMLDNIMLYWLTAAGASSARLYWESFASFGPSQIDIPAAASAFPKEIIPAPRKWFERNCSKLVYWGELEKGGHFAAWEQPEAFVKELRAAFSLMC
- optimum pH [1]: neutral pH
- enantiomer preference in hydrolysis of styrene oxide, in words [2]: not enantioselective
- Km [5]: 6 ± 0.3 mM
- Vmax [5]: 40 µmol/min/mg
- kcat [5]: 27.8 s⁻¹
- kcat/Km [5]: 4630 M⁻¹ s⁻¹
- Km [6]: 4 ± 0.3 mM
- Vmax [6]: 18.7 µmol/min/mg
- kcat [6]: 13 s⁻¹
- kcat/Km [6]: 3240 M⁻¹ s⁻¹

B3: Sphingopyxis alaskensis epoxide hydrolase sEEH (Sp), SEQ ID NO: 28 (Sphingopyxis alaskensis RB2256) (protein)
chain: SSAGPSTAITVSAAAAVAAPQDESIRPFHVSIPEEALTDLRRRLAETRWPDREKVSDASQGVQLDRLEPLVRYWGTDYDWRKGEARLNAVPQFITTIDGLDIQFIHIRSKHKGAMPLLMTHGWPGSPFELLKTVGPLTDPTAHGGKAEDAFDLIMPTYPGYGFSGKPNEAWDPARVARAWDVLMKRLGYKNYVSQGGDWGAIISQVLAVQAPEGLLGIHTNMPGTVPPGVLKLVRAKQPAPDSYSPEEKIAYAGLETFYGKGFGYAEMMNTRPQTLGYGLSDSPVGLAAFLYEKIATWTDSGGNPESVLTRDEILDNITLYWLTNTGTSSSRSYWDAAQGPGGPFNAIEISKVPVAVTVFPGEIYRAPRSWGEKSFKKLIYWNEVDKGGHFAAWEQPELFAAEIRAAFRPLREKK
- Km [7]: 4 ± 0.3 mM
- Vmax [7]: 8.9 µmol/min/mg
- kcat [7]: 7.42 s⁻¹
- kcat/Km [7]: 1860 M⁻¹ s⁻¹
- Km [8]: 5.25 ± 0.3 mM
- Vmax [8]: 12.1 µmol/min/mg
- kcat [8]: 10.1 s⁻¹
- kcat/Km [8]: 1920 M⁻¹ s⁻¹
